Earlier results in paper PMC7843923.

What was measured:
[1] = biological target: Unc5D (UniProt Q6UXZ4)
[2] = biological target: Latrophilin3 (UniProt Q9HAR2)
UniProt Q9HAR2, sequence (Q9HAR2 20-862): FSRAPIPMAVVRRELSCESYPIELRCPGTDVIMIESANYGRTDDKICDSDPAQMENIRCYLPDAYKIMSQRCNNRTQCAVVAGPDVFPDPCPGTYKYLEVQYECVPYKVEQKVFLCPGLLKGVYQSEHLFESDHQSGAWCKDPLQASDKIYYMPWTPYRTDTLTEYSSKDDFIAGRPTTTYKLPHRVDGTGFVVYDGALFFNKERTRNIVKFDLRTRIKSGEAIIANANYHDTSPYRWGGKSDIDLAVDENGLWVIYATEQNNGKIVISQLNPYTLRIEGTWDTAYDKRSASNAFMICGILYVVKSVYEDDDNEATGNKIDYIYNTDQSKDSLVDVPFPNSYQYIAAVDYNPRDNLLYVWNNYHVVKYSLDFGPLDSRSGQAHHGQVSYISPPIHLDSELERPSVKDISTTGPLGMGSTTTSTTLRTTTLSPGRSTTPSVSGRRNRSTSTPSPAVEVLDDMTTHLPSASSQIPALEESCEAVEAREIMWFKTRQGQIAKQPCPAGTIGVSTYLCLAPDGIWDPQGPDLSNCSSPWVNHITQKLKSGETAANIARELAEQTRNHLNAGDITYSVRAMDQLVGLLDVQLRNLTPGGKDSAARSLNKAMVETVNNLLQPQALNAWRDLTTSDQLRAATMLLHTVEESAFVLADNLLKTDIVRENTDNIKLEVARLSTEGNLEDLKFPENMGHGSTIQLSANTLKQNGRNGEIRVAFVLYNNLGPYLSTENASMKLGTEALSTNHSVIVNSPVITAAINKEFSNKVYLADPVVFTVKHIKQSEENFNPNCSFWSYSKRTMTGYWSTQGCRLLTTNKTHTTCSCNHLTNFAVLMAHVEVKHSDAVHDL

UniProt Q6UXZ4, sequence (Q6UXZ4 33-379): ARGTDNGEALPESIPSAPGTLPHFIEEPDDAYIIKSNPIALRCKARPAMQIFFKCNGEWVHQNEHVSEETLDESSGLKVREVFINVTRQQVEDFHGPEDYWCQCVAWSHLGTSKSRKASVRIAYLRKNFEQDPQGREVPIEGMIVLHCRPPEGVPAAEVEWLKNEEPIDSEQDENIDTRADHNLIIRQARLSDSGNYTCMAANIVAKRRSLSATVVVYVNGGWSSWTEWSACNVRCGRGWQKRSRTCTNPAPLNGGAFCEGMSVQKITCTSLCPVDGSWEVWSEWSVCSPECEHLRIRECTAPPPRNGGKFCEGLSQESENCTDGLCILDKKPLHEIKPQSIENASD

Row | Substance | Kd [1] [µM] | Kd [2] [µM]
1 | FLRT2 (from UniProt O43155) | 0.31 | –
2 | FLRT (from UniProt Q9NZU0) | – | 0.04
